Source: paper PMC10839789, “More indications for redox-sensitive cysteine residues of the Arabidopsis 5-aminolevulinate dehydratase” (Frontiers in Plant Science, 2023)
Changes are numbered by the printed parent chain. Names may count otherwise.

B1: recombinant 6xHis-ALAD (Arabidopsis thaliana 5-aminolevulinic acid dehydratase 1, mature, wild type) (enzyme, UniProt Q9SFH9 53-430, looked up)
chain: ASESGNGHAKKLGMSDAECEAAVAAGNVPEAPPVPPKPAAPVGTPIIKPLNLSRRPRRNRASPVTRAAFQETDISPANFVYPLFIHEGEEDTPIGAMPGCYRLGWRHGLVQEVAKARAVGVNSIVLFPKVPEALKNSTGDEAYNDNGLVPRTIRLLKDKYPDLIIYTDVALDPYSSDGHDGIVREDGVIMNDETVHQLCKQAVSQARAGADVVSPSDMMDGRVGAIRSALDAEGFQNVSIMSYTAKYASSFYGPFREALDSNPRFGDKKTYQMNPANYREALIEAREDEAEGADILLVKPGLPYLDIIRLLRDKSPLPIAAYQVSGEYSMIKAGGVLKMIDEEKVMMESLMCLRRAGADIILTYFALQAATCLCGEKR
notes: ALAD1 (HEMB1, AT1G69740), Arabidopsis thaliana, cloned without the transit peptide (aa 1-52, ChloroP); mature ALAD1 is Ala53 to Arg430 of the 430-residue precursor; pET28a(+); also called ALAD1; ALAD(WT); source: E. coli Rosetta (DE3), purified (Ni-NTA agarose); not shown: His6, N-terminal, kept
B2: recombinant 6xHis-ALAD(C424S/C426S) (enzyme, Arabidopsis thaliana, UniProt Q9SFH9 53-430, looked up)
chain: B1 chain with C372S, C374S
notes: ALAD1 (HEMB1, AT1G69740), Arabidopsis thaliana, mature form without the transit peptide (aa 1-52), Ala53 to Arg430; made by site-directed mutagenesis of pET28a(ALAD); also called ALAD(C424/C426); source: E. coli Rosetta (DE3), purified (Ni-NTA agarose); not shown: His6, N-terminal, kept

Legend:
[1] = target: the molecule itself; test: non-reducing SDS-PAGE with immunoblot (disulfide-linked oligomers); ALAD oxidised with diamide, dialysed, then 1 uM ALAD incubated 30 min with diamide, DTT (0.1-10 mM) or 0.1 mM DTT with TRX-f1/TRX-m1 (6.7 uM) or BSA (2 uM); free Cys blocked with NEM; non-reducing 10% SDS-PAGE; anti-His blot
[2] = target: the molecule itself; test: non-reducing SDS-PAGE with immunoblot (disulfide-linked oligomers); recombinant ALAD preincubated 15 min at RT with 1 mM diamide (oxidising) or untreated; non-reducing 12% SDS-PAGE; anti-His blot

Protein	binding result [1]	binding result [2]
B1	binds	–
B2	–	binds
